Assay results as given in paper PMC8996148, “Crystal structure of the ternary complex of Leishmania major pteridine reductase 1 with the cofactor NADP^+/NADPH and the substrate folic acid” (Acta Crystallographica. Section F, Structural Biology …, 2022).

Molecular target: the molecule itself
Assay: crystal structure; pre-formed crystals of the native enzyme (sitting drop, 293 K, 12% PEG 4600, 100 mM sodium acetate pH 5.5, 120-160 mM calcium acetate) soaked with 2 mM folate for 15 min; space group P212121, four copies per asymmetric unit; 1.81 Å

B1: Leishmania major pteridine reductase 1 (enzyme)
chain: MTAPTVPVALVTGAAKRLGRSIAEGLHAEGYAVCLHYHRSAAEANALSATLNARRPNSAITVQADLSNVATAPVSGADGSAPVTLFTRCAELVAACYTHWGRCDVLVNNASSFYPTPLLRNDEDGHEPCVGDREAMETATADLFGSNAIAPYFLIKAFAHRVAGTPAKHRGTNYSIINMVDAMTNQPLLGYTIYTMAKGALEGLTRSAALELAPLQIRVNGVGPGLSVLVDDMPPAVWEGHRSKVPLYQRDSSAAEVSDVVIFLCSSKAKYITGTCVKVDGGYSLTRA
notes: Pteridine reductase 1, Leishmania major, UniProtKB Q01782; codon-optimized synthetic DNA in pET-15b; also called LmPTR1; PTR1
stoichiometry N: 4
